Laboratory results reported in the supplement of paper PMC9112550, “Optimization of the antimicrobial peptide Bac7 by deep mutational scanning” (BMC Biology, 2022).

Tested on: Escherichia coli TOP10
Experiment: shrunken log2 fold change of peptide-encoding DNA abundance (4.5 h post-induction vs induction); higher = less antimicrobial activity (less host growth inhibition)
Conditions: time post-induction: 4.5 h; library: site-saturation at positions 5, 18, 19, 20
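Also: peptides expressed intracellularly from a pBAD plasmid library in pooled LB shake-flask culture, induced with 0.3% L-arabinose, DNA abundance read by NGS, three biological replicates, DESeq2 with apeglm shrinkage.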

| Sequence | shrunken log2 fold change |
| --- | --- |
| RRIRWRPPRLPRPRPRPVAPPRP | 0.522 |
| RRIRLRPPRLPRPRPRPVHHPRP | -0.105 |
| RRIRWRPPRLPRPRPRPATCPRP | 0.275 |
| RRIRCRPPRLPRPRPRPLIQPRP | -0.457 |
| RRIRRRPPRLPRPRPRPLHKPRP | -0.191 |
| RRIRGRPPRLPRPRPRPWIMPRP | -0.209 |
| RRIRHRPPRLPRPRPRPRYRPRP | -0.109 |
| RRIRERPPRLPRPRPRPHFAPRP | -0.0634 |
| RRIRFRPPRLPRPRPRPTDRPRP | 0.243 |
| RRIRVRPPRLPRPRPRPEWHPRP | -0.158 |
| RRIRNRPPRLPRPRPRPFMQPRP | -0.194 |
| RRIRLRPPRLPRPRPRPEYVPRP | 0.102 |
| RRIRKRPPRLPRPRPRPYMGPRP | -0.00674 |
| RRIRYRPPRLPRPRPRPLQYPRP | -0.624 |
| RRIRARPPRLPRPRPRPGWVPRP | 0.29 |
| RRIRYRPPRLPRPRPRPTAPPRP | -0.25 |
| RRIRYRPPRLPRPRPRPTGTPRP | -0.172 |
| RRIRGRPPRLPRPRPRPLCTPRP | 2.26 |
| RRIRERPPRLPRPRPRPSLPPRP | -0.19 |
| RRIRIRPPRLPRPRPRPRHIPRP | -0.19 |
| RRIRWRPPRLPRPRPRPDHHPRP | -0.445 |
| RRIRLRPPRLPRPRPRPDWRPRP | 0.0715 |
| RRIRIRPPRLPRPRPRPDFLPRP | -0.725 |
| RRIRRRPPRLPRPRPRPPAAPRP | 0.947 |
| RRIRNRPPRLPRPRPRPKEPPRP | 0.0169 |

| Sequence | shrunken log2 fold change |
| --- | --- |
| RRIRGRPPRLPRPRPRPWTFPRP | -0.00633 |
| RRIRTRPPRLPRPRPRPAYVPRP | -0.27 |
| RRIRQRPPRLPRPRPRPCSGPRP | -0.0532 |
| RRIRQRPPRLPRPRPRPEKQPRP | -0.267 |
| RRIRIRPPRLPRPRPRPCVWPRP | -0.242 |
| RRIRERPPRLPRPRPRPEFRPRP | -0.274 |
| RRIRHRPPRLPRPRPRPGCCPRP | 0.0396 |
| RRIRDRPPRLPRPRPRPHDTPRP | -0.123 |
| RRIRGRPPRLPRPRPRPDFQPRP | 1.01 |
| RRIRSRPPRLPRPRPRPWHWPRP | 0.211 |
| RRIRTRPPRLPRPRPRPESTPRP | -0.0383 |
| RRIRDRPPRLPRPRPRPKVYPRP | -0.0329 |
| RRIRSRPPRLPRPRPRPWGCPRP | 0.032 |
| RRIRSRPPRLPRPRPRPKCIPRP | -0.256 |
| RRIRFRPPRLPRPRPRPQHFPRP | 0.205 |
| RRIRNRPPRLPRPRPRPQMTPRP | -0.661 |
| RRIRDRPPRLPRPRPRPENDPRP | 0.41 |
| RRIRARPPRLPRPRPRPSLQPRP | 0.193 |
| RRIRMRPPRLPRPRPRPQEGPRP | 0.0197 |
| RRIRQRPPRLPRPRPRPRWDPRP | 0.29 |
| RRIRVRPPRLPRPRPRPASMPRP | 0.0106 |
| RRIRKRPPRLPRPRPRPNPEPRP | 0.0292 |
| RRIRQRPPRLPRPRPRPHTNPRP | -0.814 |
| RRIRTRPPRLPRPRPRPPDIPRP | -0.118 |
| RRIRFRPPRLPRPRPRPNVEPRP | 0.0199 |

| Sequence | shrunken log2 fold change |
| --- | --- |
| RRIRLRPPRLPRPRPRPRIPPRP | 0.09 |
| RRIRARPPRLPRPRPRPWVEPRP | 0.151 |
| RRIRMRPPRLPRPRPRPTISPRP | 0.0688 |
| RRIRLRPPRLPRPRPRPCKYPRP | -0.0018 |
| RRIRERPPRLPRPRPRPMQVPRP | -0.32 |
| RRIRTRPPRLPRPRPRPYDWPRP | -0.696 |
| RRIRIRPPRLPRPRPRPLMEPRP | -0.278 |
| RRIRERPPRLPRPRPRPLKPPRP | -0.16 |
| RRIRCRPPRLPRPRPRPRKIPRP | 0.245 |
| RRIRRRPPRLPRPRPRPTPHPRP | 0.884 |
| RRIRFRPPRLPRPRPRPWSDPRP | -0.159 |
| RRIRYRPPRLPRPRPRPIVFPRP | -0.58 |
| RRIRNRPPRLPRPRPRPCGGPRP | -0.0209 |
| RRIRIRPPRLPRPRPRPLDDPRP | 0.0241 |
| RRIRARPPRLPRPRPRPYVPPRP | -0.114 |
| RRIRDRPPRLPRPRPRPVPGPRP | 0.214 |
| RRIRIRPPRLPRPRPRPPMPPRP | -0.0926 |
| RRIRVRPPRLPRPRPRPYINPRP | -0.724 |
| RRIRERPPRLPRPRPRPKWAPRP | 0.0574 |
| RRIRPRPPRLPRPRPRPLVNPRP | -0.549 |
| RRIRVRPPRLPRPRPRPIRRPRP | 0.0517 |
| RRIRFRPPRLPRPRPRPNACPRP | -0.18 |
| RRIRIRPPRLPRPRPRPRSQPRP | 0.085 |
| RRIRSRPPRLPRPRPRPSSMPRP | -0.422 |
| RRIRFRPPRLPRPRPRPTYCPRP | -0.339 |

| Sequence | shrunken log2 fold change |
| --- | --- |
| RRIRRRPPRLPRPRPRPCYMPRP | -0.191 |
| RRIRNRPPRLPRPRPRPRHMPRP | -0.199 |
| RRIRVRPPRLPRPRPRPQGKPRP | 0.00549 |
| RRIRTRPPRLPRPRPRPESHPRP | -0.164 |
| RRIRVRPPRLPRPRPRPKLPPRP | -0.266 |
| RRIRSRPPRLPRPRPRPYWDPRP | -0.321 |
| RRIRQRPPRLPRPRPRPMIDPRP | -0.517 |
| RRIRGRPPRLPRPRPRPNYGPRP | 0.07 |
| RRIRMRPPRLPRPRPRPRCVPRP | 0.581 |
| RRIRNRPPRLPRPRPRPMSSPRP | -0.123 |
| RRIRCRPPRLPRPRPRPWVAPRP | -0.0206 |
| RRIRKRPPRLPRPRPRPQWLPRP | 0.0628 |
| RRIRTRPPRLPRPRPRPFTGPRP | -0.12 |
| RRIRERPPRLPRPRPRPCWAPRP | 0.00771 |
| RRIRSRPPRLPRPRPRPGLLPRP | -0.0369 |
| RRIRTRPPRLPRPRPRPNYAPRP | 0.0202 |
| RRIRSRPPRLPRPRPRPPWDPRP | 0.409 |
| RRIRCRPPRLPRPRPRPYEWPRP | -0.0207 |
| RRIRNRPPRLPRPRPRPGSIPRP | -0.00285 |
| RRIRCRPPRLPRPRPRPTEAPRP | 0.425 |
| RRIRERPPRLPRPRPRPEFEPRP | -0.159 |
| RRIRDRPPRLPRPRPRPTMSPRP | 0.0526 |
| RRIRERPPRLPRPRPRPRLSPRP | 0.134 |
| RRIRNRPPRLPRPRPRPHWWPRP | 0.127 |
| RRIRWRPPRLPRPRPRPMNKPRP | -0.267 |

| Sequence | shrunken log2 fold change |
| --- | --- |
| RRIRKRPPRLPRPRPRPTVDPRP | -0.108 |
| RRIRHRPPRLPRPRPRPTANPRP | 0.0557 |
| RRIRGRPPRLPRPRPRPQIGPRP | 0.345 |
| RRIRVRPPRLPRPRPRPEMSPRP | 0.0206 |
| RRIRTRPPRLPRPRPRPVQCPRP | 0.00249 |
| RRIRRRPPRLPRPRPRPLSGPRP | 0.379 |
| RRIRCRPPRLPRPRPRPQASPRP | -0.000207 |
| RRIRYRPPRLPRPRPRPLCAPRP | -0.356 |
| RRIRHRPPRLPRPRPRPWWEPRP | -0.015 |
| RRIRGRPPRLPRPRPRPICIPRP | 0.176 |
| RRIRRRPPRLPRPRPRPDYVPRP | 0.0255 |
| RRIRHRPPRLPRPRPRPECSPRP | -0.0101 |
| RRIRQRPPRLPRPRPRPMPSPRP | -0.162 |
| RRIRYRPPRLPRPRPRPPVPPRP | 0.486 |
| RRIRRRPPRLPRPRPRPHCTPRP | -0.18 |
| RRIRFRPPRLPRPRPRPDQYPRP | -0.169 |
| RRIRIRPPRLPRPRPRPNYFPRP | -0.749 |
| RRIRPRPPRLPRPRPRPHITPRP | -0.759 |
| RRIRGRPPRLPRPRPRPGQKPRP | 0.494 |
| RRIRDRPPRLPRPRPRPYIHPRP | -0.117 |
| RRIRPRPPRLPRPRPRPNTRPRP | -0.112 |
| RRIRYRPPRLPRPRPRPVWQPRP | -0.288 |
| RRIRGRPPRLPRPRPRPNMGPRP | 0.269 |
| RRIRTRPPRLPRPRPRPVGMPRP | -0.388 |
| RRIRVRPPRLPRPRPRPQLIPRP | -0.334 |

| Sequence | shrunken log2 fold change |
| --- | --- |
| RRIRNRPPRLPRPRPRPPNEPRP | 0.217 |
| RRIRGRPPRLPRPRPRPHYVPRP | -0.0585 |
| RRIRLRPPRLPRPRPRPKWHPRP | -0.207 |
| RRIRVRPPRLPRPRPRPGDKPRP | 0.00318 |
| RRIRPRPPRLPRPRPRPEYSPRP | -0.117 |
| RRIRVRPPRLPRPRPRPHTMPRP | -0.252 |
| RRIRDRPPRLPRPRPRPEIQPRP | 0.7 |
| RRIRTRPPRLPRPRPRPSIRPRP | -0.183 |
| RRIRERPPRLPRPRPRPHWSPRP | -0.71 |
| RRIRYRPPRLPRPRPRPVGHPRP | -0.076 |
| RRIRGRPPRLPRPRPRPAYKPRP | -0.202 |
| RRIRRRPPRLPRPRPRPLTFPRP | 2.56 |
| RRIRFRPPRLPRPRPRPARNPRP | 0.0979 |
| RRIRPRPPRLPRPRPRPFIAPRP | -0.342 |
| RRIRPRPPRLPRPRPRPRPPPRP | 0.831 |
| RRIRQRPPRLPRPRPRPWTMPRP | 0.0143 |
| RRIRTRPPRLPRPRPRPANQPRP | -0.102 |
| RRIRERPPRLPRPRPRPWFMPRP | -0.688 |
| RRIRDRPPRLPRPRPRPPIMPRP | 0.0621 |
| RRIRARPPRLPRPRPRPGCMPRP | 0.727 |
| RRIRFRPPRLPRPRPRPRSPPRP | 1.06 |
| RRIRHRPPRLPRPRPRPCCPPRP | -0.243 |
| RRIRVRPPRLPRPRPRPFDDPRP | -0.175 |
| RRIRNRPPRLPRPRPRPRCIPRP | -0.256 |
| RRIRYRPPRLPRPRPRPRASPRP | -0.412 |
